The text below walks through data of article PMC7529893, “Structural basis for substrate recognition and chemical inhibition of oncogenic MAGE ubiquitin ligases” (Nature Communications, 2020).

Values joined by “and” are separate entries in the source; they are usually repeats but may differ in a detail not shown here. Identical values can stand only once. Peptide text beside a SMILES is read from it.

T1: GST-MAGE-A11 MHD (Homo sapiens, UniProt P43364)
T1 construct: GST-MAGE-A11 MHD (human MAGE-A11 MHD amino acid 218-429); made in house; host or cells: E. coli BL21(DE3)
T1 sequence (P43364 218-429): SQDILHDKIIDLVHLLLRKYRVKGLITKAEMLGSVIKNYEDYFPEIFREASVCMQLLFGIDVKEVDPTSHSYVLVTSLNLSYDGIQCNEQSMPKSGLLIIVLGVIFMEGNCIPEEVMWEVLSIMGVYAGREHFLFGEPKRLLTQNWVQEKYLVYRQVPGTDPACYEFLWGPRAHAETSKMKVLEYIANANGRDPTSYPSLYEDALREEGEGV

T2: GST-MAGE-A11 MHD (human MAGE-A11 MHD amino acid 218-429) (human, UniProt P43364 218-429)
T2 chain: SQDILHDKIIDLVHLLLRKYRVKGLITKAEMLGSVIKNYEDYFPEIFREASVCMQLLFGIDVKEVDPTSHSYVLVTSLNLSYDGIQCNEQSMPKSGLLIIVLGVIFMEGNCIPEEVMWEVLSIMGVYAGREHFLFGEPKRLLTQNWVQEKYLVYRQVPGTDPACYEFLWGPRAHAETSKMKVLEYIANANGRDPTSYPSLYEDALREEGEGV

B1: PCF11_6 peptide (peptide)
chain: FLVVVHQIRQLFQYQ
modifications: exact ends are only in Fig. 1b; 682-696 is inferred from 'three overlapping peptides centered on PCF11 amino acids 682-696' (the later 13-residue model peptide is 682-694)

One test concerns the target T1, GST-MAGE-A11 MHD. The experiment in a line: TR-FRET competition assay of PCF11 peptides against GST-MAGE-A11 MHD / FAM-PCF11_4. Particulars: Fig. 1c, panel of eight PCF11 peptides; read-out: IC50, binding of PCF11 peptide to GST-MAGE-A11 by TR-FRET. On the procedure:
The TR-FRET assay buffer with a formula of 50 mM Tris pH 7.5, 20 mM MgCl2, 0.1 mg/ml BSA and 1 mM DTT was freshly prepared before each experiment. All TR-FRET assays were performed in black 384-well plates with 20 µl/well assay volume in the TR-FRET assay buffer at room temperature (~25 °C). All peptides or compounds were solubilized in DMSO. To test the competitive activity of peptides or compounds against the interaction between GST-MAGE-A11 MHD and FAM-PCF11_4 peptide, 10 µl/well peptide or compound at specified concentration was dispensed into a black 384-well low volume plate, followed by 5 µl/well FAM-PCF11_4 (800 nM), 5 µl/well Tb-anti-GST (20 nM), and GST-MAGE-A11 MHD (20 nM). The assay components in each well was then mixed by shaking the plate on an IKA MTS 2/4 digital microtiter plate shaker (IKA Works; Wilmington, NC, USA) for 1 min. The plate was further centrifuged in an Eppendorf 5810 centrifuge with an A-4-62 swing-bucket rotor (Eppendorf AG, Hamburg, Germany) at 201 g for 30 s. The plate was then incubated for 90 min with a lid to avoid light exposure to the assay components. After incubation, the fluorescent emission signals at 520 nm and 490 nm channels of individual wells were measured with a PHERAstar FS plate reader (BMG Labtech; Durham, NC, USA) by using a 340 nm excitation filter, 100 µs delay time, and 200 µs integration time. The TR-FRET fluorescence emission ratio (TR-FRET signal) for each well was presented as 10,000 × 520 nm/490 nm, which was used directly for curve fitting, or further converted to %Inhibition based on the respective positive and negative controls. The graphic software GraphPad Prism 4.81 (GraphPad Software; La Jolla, CA, USA) was used to generate curves and derive IC50 values of tested peptides or compounds, if applicable.
TR-FRET inhibitory activity characterization of a panel of PCF11 peptides against the interaction between GST-MAGE-A11 MHD and FAM-PCF11_4 was performed as follows. In a 20-µl/well assay volume, dilutions of PCF11_1 to PCF11_8 peptides (concentrations ranged from 3.1 nM to 100 µM for peptides PCF11_4, PCF11_5, PCF11_6 and PCF11_8 in a 1-to-2 dilution pattern for 16 concentration levels, and ranged from 48.9 nM to 100 µM for peptides of PCF11_1, PCF11_2, PCF11_3, and PCF11_7 in a 1-to-2 dilution pattern for 12 concentration levels), 200 nM FAM-PCF11_4, 5 nM Tb-anti-GST and 5 nM GST-MAGE-A11 were mixed together and incubated for 90 min before the TR-FRET signal for each well was measured. The final DMSO concentration was 1.1% (v/v). […] The signal of each peptide-treated well (Signalpeptide) was normalized to the positive and negative controls to derive %inhibition of the peptide at a specific concentration with Eq. (1). Where applicable, the %Inhibition data were fit into a Sigmoidal dose response equation to derive IC50 values.1 %Inhibition=100%−100%×(Signalpeptide−SignalDMSOwithoutGST-MAGEA11)/SignalDMSO−SignalDMSOwithoutGST-MAGEA11.
As for `CC[C@H](C)[C@H](N)C(=O)N[C@H](C(=O)N[C@@H](CCC(N)=O)C(=O)N[C@@H](CC(=O)O)C(=O)N[C@@H](CC(=O)O)C(=O)N[C@@H](Cc1ccccc1)C(=O)N[C@@H](CC(C)C)C(=O)N[C@H](C(=O)N[C@H](C(=O)N[C@H](C(=O)N[C@@H](Cc1c[nH]cn1)C(=O)N[C@@H](CCC(N)=O)C(=O)N[C@H](C(=O)N[C@@H](CCCNC(=N)N)C(=O)N[C@@H](CCC(N)=O)C(=O)N[C@@H](CC(C)C)C(=O)N[C@@H](Cc1ccccc1)C(=O)N[C@@H](CCC(N)=O)C(=O)N[C@@H](Cc1ccc(O)cc1)C(=O)N[C@@H](CCC(N)=O)C(=O)N[C@@H](CCC(=O)O)C(=O)NCC(=O)N[C@H](C(=O)N[C@@H](CCCNC(=N)N)C(=O)N[C@@H](CCC(=O)O)C(=O)O)C(C)C)[C@@H](C)CC)C(C)C)C(C)C)C(C)C)[C@@H](C)O` [PCF11_4] (H-ITQDDFLVVVHQIRQLFQYQEGVRE-OH; N-terminus assumed), the IC50 (commonly the concentration needed to halve the response being measured) was 59 nM.

For the molecule `CC[C@H](C)[C@H](NC(=O)[C@H](CCC(N)=O)NC(=O)[C@H](Cc1c[nH]cn1)NC(=O)[C@@H](NC(=O)[C@@H](NC(=O)[C@@H](NC(=O)[C@H](CC(C)C)NC(=O)[C@H](Cc1ccccc1)NC(=O)[C@H](CC(=O)O)NC(=O)[C@H](CC(=O)O)NC(=O)[C@@H](N)CCC(N)=O)C(C)C)C(C)C)C(C)C)C(=O)N[C@@H](CCCNC(=N)N)C(=O)N[C@@H](CCC(N)=O)C(=O)N[C@@H](CC(C)C)C(=O)N[C@@H](Cc1ccccc1)C(=O)N[C@@H](CCC(N)=O)C(=O)N[C@@H](Cc1ccc(O)cc1)C(=O)N[C@@H](CCC(N)=O)C(=O)N[C@@H](CCC(=O)O)C(=O)NCC(=O)O` [PCF11_5] (H-QDDFLVVVHQIRQLFQYQEG-OH; N-terminus assumed), the IC50 amounted to 77 nM.

Turning to `CC[C@H](C)[C@H](NC(=O)[C@H](CCC(N)=O)NC(=O)[C@H](Cc1c[nH]cn1)NC(=O)[C@@H](N)C(C)C)C(=O)N[C@@H](CCCNC(=N)N)C(=O)N[C@@H](CCC(N)=O)C(=O)N[C@@H](CC(C)C)C(=O)N[C@@H](Cc1ccccc1)C(=O)N[C@@H](CCC(N)=O)C(=O)N[C@@H](Cc1ccc(O)cc1)C(=O)N[C@@H](CCC(N)=O)C(=O)N[C@@H](CCC(=O)O)C(=O)NCC(=O)N[C@H](C(=O)N[C@@H](CCCNC(=N)N)C(=O)O)C(C)C` [PCF11_7] (H-VHQIRQLFQYQEGVR-OH; N-terminus assumed), the IC50 is greater than 50000 nM.

On to `CC[C@H](C)[C@H](NC(=O)[C@H](CCC(N)=O)NC(=O)[C@H](Cc1c[nH]cn1)NC(=O)[C@@H](N)C(C)C)C(=O)N[C@@H](CCCNC(=N)N)C(=O)N[C@@H](CCC(N)=O)C(=O)N[C@@H](CC(C)C)C(=O)N[C@@H](Cc1ccccc1)C(=O)N[C@@H](CCC(N)=O)C(=O)N[C@@H](Cc1ccc(O)cc1)C(=O)N[C@@H](CCC(N)=O)C(=O)N[C@@H](CCC(=O)O)C(=O)NCC(=O)N[C@H](C(=O)N[C@@H](CCCNC(=N)N)C(=O)N[C@@H](CCC(=O)O)C(=O)N[C@@H](CCC(=O)O)C(=O)N[C@@H](CCC(N)=O)C(=O)N[C@@H](CCCNC(=N)N)C(=O)N[C@@H](CO)C(=O)O)C(C)C` [PCF11_8] (H-VHQIRQLFQYQEGVREEQRS-OH; N-terminus assumed), for which the IC50 was greater than 50000 nM.

For another test, the target named is T2, GST-MAGE-A11 MHD (human MAGE-A11 MHD …). The experiment in a line: FRET.
Conditions: not given
Molecule FLVVVHQIRQLAQYQ [PCF11_6 peptide F693A] gave an IC50 of 2140 nM.

B1: the IC50 was 70 nM and 65 nM.

Molecule ALVVVHQIRQLFQYQ (same inferred limits as m7) [PCF11_6 peptide F682A] gave an IC50 of 570 nM.

As to FLVVVHQIRQAFQYQ [PCF11_6 peptide L692A], the IC50 turned out to be 540 nM.

In the case of FLVVVHQIAQLFQYQ [PCF11_6 peptide R690A], the 50% inhibitory concentration (IC50) was found to be 15600 nM.

FLVVVHQARQLFQYQ [PCF11_6 peptide I689A] gave an IC50 of 1020 nM.
